Data on three substances can be found in US20090232801A1.

In assay [1] the target is Aβ(1-42) fibrils (human). In words: fibril pull-down: antibody incubated 20 h at 37 °C with Aβ(1-42) fibrils, centrifuged; SDS-PAGE densitometry of the heavy chain in pellet and supernatant.
The target in assay [2] is Aβ(1-42) globulomer (human). In words: dot blot densitometry; reference: Aβ(1-40) monomer.
For assay [3], the target named is Aβ(1-42) globulomer (human). In words: dot blot densitometry; reference: Aβ(1-42) monomer.
Assay [4] addresses Aβ(1-40) monomer (human). In words: dot blot, 10 pmol antigen on nitrocellulose, 0.2 µg/ml antibody, densitometry.
For assay [5], the target named is Aβ(1-42) globulomer (human). The assay is described as above.
Assay [6] has as its target Aβ(1-42) monomer, HFIP pretreated (human). The assay is described as above.

Sequence of Aβ(1-42) globulomer (human) (peptide, as listed by the source): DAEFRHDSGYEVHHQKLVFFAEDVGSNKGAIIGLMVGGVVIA
Sequence of Aβ(1-40) monomer (human) (peptide, as listed by the source): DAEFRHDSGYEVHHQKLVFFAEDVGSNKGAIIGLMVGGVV

Consider “mMAb 6E10 (Signet Inc. Cat.#9320) (antibody)”, for which the Fibril bound Ab fraction in assay [1] amounted to 91%.
For the substance mouse monoclonal antibody 4G8, in assay [2], the Ratio RD Aβ(1-42) globulomer/RD Aβ(1-40) monomer was 10. Moreover, in assay [3], the Ratio RD Aβ(1-42) globulomer/RD Aβ(1-42) monomer came out at 0.42. The Reflective Density (RD) [10 pmol] was found to be 0.15 RD in assay [4], 1.5 RD in assay [5] and 3.5 RD in assay [6].
unspecific antibody IgG2a returned a Fibril bound Ab fraction in assay [1] of 9%.
